Publication PMC12990809

What was measured:
Experiment in all cases: pulldown
Details in all cases: 20 nM protein, 1.5 uM RNA pool; 20 mM HEPES pH 7.8, 70 mM KCl, 10 mM NaCl, 10% glycerol, 2 mM DTT, 0.1 ug/uL BSA; 30 min, 4 C
[1] = target: T1, pabpc1A (Dictyostelium discoideum) (UniProt Q54BM2)
T1 sequence: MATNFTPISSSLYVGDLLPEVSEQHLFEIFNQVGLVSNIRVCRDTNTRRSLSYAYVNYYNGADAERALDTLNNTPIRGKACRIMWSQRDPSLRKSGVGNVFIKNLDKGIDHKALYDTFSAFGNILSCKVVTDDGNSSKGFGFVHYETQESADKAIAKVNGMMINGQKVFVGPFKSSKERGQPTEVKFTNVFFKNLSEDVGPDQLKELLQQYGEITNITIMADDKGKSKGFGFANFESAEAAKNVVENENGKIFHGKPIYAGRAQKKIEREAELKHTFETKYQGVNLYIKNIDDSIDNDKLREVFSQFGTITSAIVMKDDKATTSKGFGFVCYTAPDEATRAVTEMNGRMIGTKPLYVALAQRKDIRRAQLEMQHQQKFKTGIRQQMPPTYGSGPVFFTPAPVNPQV

[2] = target: T2, RNPC3 ins163_E (Gallus gallus) (UniProt A0A8V0ZU58)
T2 sequence: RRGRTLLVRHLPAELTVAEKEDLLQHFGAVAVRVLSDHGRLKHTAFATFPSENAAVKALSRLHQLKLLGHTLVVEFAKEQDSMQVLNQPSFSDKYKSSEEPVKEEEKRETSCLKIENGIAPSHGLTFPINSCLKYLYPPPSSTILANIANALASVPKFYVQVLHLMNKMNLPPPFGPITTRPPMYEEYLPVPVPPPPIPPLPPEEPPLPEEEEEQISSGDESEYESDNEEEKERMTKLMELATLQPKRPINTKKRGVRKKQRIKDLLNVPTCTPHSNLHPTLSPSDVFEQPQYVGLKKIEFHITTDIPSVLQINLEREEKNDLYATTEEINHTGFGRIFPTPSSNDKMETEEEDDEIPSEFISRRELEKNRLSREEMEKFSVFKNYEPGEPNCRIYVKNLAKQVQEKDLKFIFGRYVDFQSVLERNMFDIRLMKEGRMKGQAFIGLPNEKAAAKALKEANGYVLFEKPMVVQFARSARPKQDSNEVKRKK

PRR3 (Homo sapiens) = target: T3, PRR3 (Homo sapiens) (UniProt P79522)
T3 sequence: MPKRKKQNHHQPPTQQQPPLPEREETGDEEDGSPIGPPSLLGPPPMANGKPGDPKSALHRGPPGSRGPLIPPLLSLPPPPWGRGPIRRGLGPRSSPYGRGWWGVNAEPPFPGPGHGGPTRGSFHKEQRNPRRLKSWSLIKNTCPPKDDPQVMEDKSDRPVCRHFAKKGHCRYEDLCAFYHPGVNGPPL

[3] = target: T4, PF14_0151 (Plasmodium falciparum) (UniProt Q8ILU3)
T4 sequence: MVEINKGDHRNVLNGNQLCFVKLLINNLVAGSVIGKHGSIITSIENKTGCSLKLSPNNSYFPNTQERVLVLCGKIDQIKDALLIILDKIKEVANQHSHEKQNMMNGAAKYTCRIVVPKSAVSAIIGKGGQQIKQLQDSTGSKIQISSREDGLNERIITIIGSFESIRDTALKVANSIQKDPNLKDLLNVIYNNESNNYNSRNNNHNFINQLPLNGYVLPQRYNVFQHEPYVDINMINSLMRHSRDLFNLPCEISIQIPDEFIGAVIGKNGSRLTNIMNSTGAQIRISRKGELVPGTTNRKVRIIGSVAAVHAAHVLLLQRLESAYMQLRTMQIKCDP

[4] = target: T5, TVAG_371220 (Trichomonas vaginalis) (UniProt A2FYE4)
T5 sequence: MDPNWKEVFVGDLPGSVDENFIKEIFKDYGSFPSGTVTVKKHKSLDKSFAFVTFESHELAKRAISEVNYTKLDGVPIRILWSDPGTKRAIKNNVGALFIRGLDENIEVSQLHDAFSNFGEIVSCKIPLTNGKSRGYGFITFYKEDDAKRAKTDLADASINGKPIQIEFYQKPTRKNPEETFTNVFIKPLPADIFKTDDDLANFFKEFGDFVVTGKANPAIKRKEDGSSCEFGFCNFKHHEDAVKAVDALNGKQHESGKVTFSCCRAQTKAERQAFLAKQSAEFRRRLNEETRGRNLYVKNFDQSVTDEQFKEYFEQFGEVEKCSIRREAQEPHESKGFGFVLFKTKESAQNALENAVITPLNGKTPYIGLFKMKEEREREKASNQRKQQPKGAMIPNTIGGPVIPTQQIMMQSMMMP

[5] = target: T6, Smp_024140 (Schistosoma mansoni) (UniProt G4VQ61)
T6 sequence: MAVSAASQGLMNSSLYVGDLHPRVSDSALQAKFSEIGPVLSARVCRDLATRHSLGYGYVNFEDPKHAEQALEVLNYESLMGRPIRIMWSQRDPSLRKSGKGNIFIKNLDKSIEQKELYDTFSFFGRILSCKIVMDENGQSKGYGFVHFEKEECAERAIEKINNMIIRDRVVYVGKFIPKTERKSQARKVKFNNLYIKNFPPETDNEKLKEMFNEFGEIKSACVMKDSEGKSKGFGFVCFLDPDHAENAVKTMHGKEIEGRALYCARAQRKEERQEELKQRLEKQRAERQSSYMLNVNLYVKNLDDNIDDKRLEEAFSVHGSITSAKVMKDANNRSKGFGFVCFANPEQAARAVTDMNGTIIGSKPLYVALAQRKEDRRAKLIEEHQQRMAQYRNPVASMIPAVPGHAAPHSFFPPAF

[6] = target: T7, CG15440 (Drosophila melanogaster) (UniProt Q7KU43)
T7 sequence: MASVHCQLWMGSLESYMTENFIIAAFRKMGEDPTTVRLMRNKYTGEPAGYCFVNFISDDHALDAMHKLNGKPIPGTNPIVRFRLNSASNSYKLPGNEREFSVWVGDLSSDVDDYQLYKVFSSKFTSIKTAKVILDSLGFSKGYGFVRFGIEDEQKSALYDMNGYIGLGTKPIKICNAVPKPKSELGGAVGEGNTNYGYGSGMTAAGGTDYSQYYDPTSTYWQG

[7] = target: T8, rnp-3 (Caenorhabditis elegans) (UniProt Q21323)
T8 sequence: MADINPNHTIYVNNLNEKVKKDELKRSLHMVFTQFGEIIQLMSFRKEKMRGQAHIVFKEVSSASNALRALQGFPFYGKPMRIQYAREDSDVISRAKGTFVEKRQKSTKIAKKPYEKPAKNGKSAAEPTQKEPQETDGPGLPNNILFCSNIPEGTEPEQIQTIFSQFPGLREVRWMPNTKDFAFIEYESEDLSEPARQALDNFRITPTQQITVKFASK

[8] = target: T9, snrpB2 (Dictyostelium discoideum) (UniProt Q54J05)
T9 sequence: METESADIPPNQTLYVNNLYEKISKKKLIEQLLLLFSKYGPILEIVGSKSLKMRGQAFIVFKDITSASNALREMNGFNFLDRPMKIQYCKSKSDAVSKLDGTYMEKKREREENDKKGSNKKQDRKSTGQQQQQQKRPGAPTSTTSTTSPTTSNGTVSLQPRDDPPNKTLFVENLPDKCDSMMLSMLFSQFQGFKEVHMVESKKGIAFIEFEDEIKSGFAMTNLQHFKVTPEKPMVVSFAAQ

AAAAAAA [RNAcompete motif RNCMPT00508] was tested, and the binding signal (z-score (mean of top ten 7-mers)) [1] was 14.8.

UUACGUA [RNAcompete motif RNCMPT00630] gave a binding signal (z-score (mean of top ten 7-mers)) [2] of 6.68.

For AUAAGC [RNAcompete motif RNCMPT00628], the binding signal (z-score (mean of top ten 7-mers)) (PRR3 (Homo sapiens)) was 15.2.

For AUACANA [RNAcompete motif RNCMPT00505], the binding signal (z-score (mean of top ten 7-mers)) [3] was 8.57.

Substance AAAAAAG [RNAcompete motif RNCMPT00623] has a binding signal (z-score (mean of top ten 7-mers)) [4] of 11.9.

For AAAAAA [RNAcompete motif RNCMPT00501], the binding signal (z-score (mean of top ten 7-mers)) [5] was 8.02.

GAUAUU [RNAcompete motif RNCMPT00513] showed a binding signal (z-score (mean of top ten 7-mers)) [6] of 13.9.

Work on AGCACGG [RNAcompete motif RNCMPT00510] yielded a binding signal (z-score (mean of top ten 7-mers)) [7] of 14.1.

AGCAC [RNAcompete motif RNCMPT00507] gave a binding signal (z-score (mean of top ten 7-mers)) [8] of 12.9.
